Target: cav1_human CAV1 (UniProt Q03135)
Sequence of UniProt Q03135 (Q03135 whole entry): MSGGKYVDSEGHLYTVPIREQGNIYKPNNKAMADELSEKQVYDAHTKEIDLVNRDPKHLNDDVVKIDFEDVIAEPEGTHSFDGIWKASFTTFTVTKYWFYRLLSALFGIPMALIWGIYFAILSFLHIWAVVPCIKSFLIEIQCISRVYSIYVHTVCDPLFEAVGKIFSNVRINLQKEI

Microtubule-associated protein 1 light chain 3 beta (Homo sapiens) (from UniProt Q9GZQ8) Y113A
effect of a mutation on the interaction: disrupting interaction

Reference: IntAct's records for PubMed 20956295
